Source: PMC5928113, “Properties of the ternary complex formed by yeast eIF4E, p20 and mRNA” (Scientific Reports, 2018)
Values belong to the molecule of their own block, whether it stands above or below them.

Experiments:
[1] = biological target: T1, eIF4E/p20 complex (eIF4E/His6x-p20) (Saccharomyces cerevisiae, UniProt P07260); test: microscale thermophoresis, RED-tris-NTA labelled protein; type: binding; conditions: read-out: Cap-analog / MST
T1 construct: gene CDC33; recombinant complex, untagged eIF4E (pET28a) co-expressed with His6x-p20 (pET3a, tag kept) in E. coli BL21 Rosetta 2 (DE3); with Cap-associated protein CAF20
T1 sequence (P07260 1-213): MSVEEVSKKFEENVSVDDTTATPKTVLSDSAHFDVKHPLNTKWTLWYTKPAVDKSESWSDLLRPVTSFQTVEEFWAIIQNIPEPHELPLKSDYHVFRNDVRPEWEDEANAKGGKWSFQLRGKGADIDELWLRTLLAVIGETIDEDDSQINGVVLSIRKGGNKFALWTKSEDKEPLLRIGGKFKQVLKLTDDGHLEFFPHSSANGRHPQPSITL
T1 sequence (P12962 1-161 partner): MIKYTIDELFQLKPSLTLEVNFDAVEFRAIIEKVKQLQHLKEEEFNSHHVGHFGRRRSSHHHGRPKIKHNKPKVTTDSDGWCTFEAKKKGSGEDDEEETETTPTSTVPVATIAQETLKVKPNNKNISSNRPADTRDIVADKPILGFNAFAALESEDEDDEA
From the text: microscale thermophoresis, RED-tris-NTA labelled protein on eIF4E/p20 complex (eIF4E/His6x-p20)

eIF4E (His6x-eIF4E) = biological target: T2, eIF4E (His6x-eIF4E) (Saccharomyces cerevisiae, UniProt P07260); test: as above; type: binding; conditions: read-out: Cap-analog / MST
T2 construct: gene CDC33; recombinant, N-terminal His6x tag kept, codon-optimized gene in pET3a, E. coli BL21 Rosetta 2 (DE3)
T2 sequence (P07260 1-213): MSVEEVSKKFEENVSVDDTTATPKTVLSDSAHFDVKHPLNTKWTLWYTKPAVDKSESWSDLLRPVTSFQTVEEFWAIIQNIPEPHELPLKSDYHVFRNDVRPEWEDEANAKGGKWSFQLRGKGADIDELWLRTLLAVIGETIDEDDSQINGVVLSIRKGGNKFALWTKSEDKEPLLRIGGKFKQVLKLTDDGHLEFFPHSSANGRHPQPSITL
From the text: microscale thermophoresis, RED-tris-NTA labelled protein on eIF4E (His6x-eIF4E)

[2] = biological target: T3, His6x-eIF4E (Saccharomyces cerevisiae) (UniProt P07260); test: EMSA; conditions: 5' m7GpppG cap (Vaccinia Capping System); Buffer A: 10 mM sodium phosphate pH 7.5, 100 mM NaCl, 2.5 mM MgCl2, 1 mM DTT, 0.05% NP40; MST at 25 C (proteins for capped RNA MST RED-tris-NTA labeled in …)
T3 sequence: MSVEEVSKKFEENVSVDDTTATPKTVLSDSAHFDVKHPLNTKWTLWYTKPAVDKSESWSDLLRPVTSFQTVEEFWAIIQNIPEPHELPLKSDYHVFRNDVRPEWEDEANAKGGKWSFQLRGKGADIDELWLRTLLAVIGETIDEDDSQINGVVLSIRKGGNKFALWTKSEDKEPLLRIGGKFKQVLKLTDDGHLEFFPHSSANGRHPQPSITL

[3] = biological target: T3, His6x-eIF4E (Saccharomyces cerevisiae); test: MST; conditions: 5' m7GpppG cap (Vaccinia Capping System), Buffer A: 10 mM sodium phosphate pH 7.5, 100 mM NaCl, 2.5 mM MgCl2, 1 mM DTT, 0.05% NP40, MST at 25 C (proteins for capped RNA MST RED-tris-NTA labeled in …)
His6x-eIF4E = biological target: T4, His6x-eIF4E (Saccharomyces cerevisiae, UniProt P07260 1-213); test: MST; up to 96 uM protein; Buffer A: 10 mM sodium phosphate pH 7.5, 100 mM NaCl, 2.5 mM MgCl2, 1 mM DTT, 0.05% NP40; MST at 25 C (proteins for capped RNA MST RED-tris-NTA labeled in buffer B: 20 mM HEPES-KOH pH 7.5, 50 mM NaCl, 1 mM DTT); EMSA 1.5% agarose, 1x TBE, temperature not stated; conditions: protein: recombinant; tags: N-terminal His6x; label: 3' FAM
T4 sequence: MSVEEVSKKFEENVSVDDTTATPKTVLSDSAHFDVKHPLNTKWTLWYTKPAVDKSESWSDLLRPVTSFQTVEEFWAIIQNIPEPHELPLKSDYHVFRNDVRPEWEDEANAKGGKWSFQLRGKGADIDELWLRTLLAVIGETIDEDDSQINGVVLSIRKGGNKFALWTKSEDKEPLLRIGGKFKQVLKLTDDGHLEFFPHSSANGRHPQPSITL

Kd [1]: 420 nM
Kd (eIF4E (His6x-eIF4E)): 425 nM
Molecule: C[n+]1cn([C@@H]2O[C@H](COP(=O)(O)OP(=O)(O)OP(=O)(O)OC[C@H]3O[C@@H](n4cnc5c(=O)[nH]c(N)nc54)[C@H](O)[C@@H]3O)[C@@H](O)[C@H]2O)c2nc(N)[nH]c(=O)c21 [m^7GpppG]

Molecule: GGGAACAAAAGCUGGUAAUCAAGAAUUACAAGAAACAAAAAUUCAAGUAAAUAACAGAUAAUAC [capped SSA1 5'UTR RNA, 64 nt]
Kd [2]: 275 nM
Kd [3]: 226 nM
Kd ([3]; no peptide, control of the peptide experiment): 230 nM

B1: uncapped SSA1 5'UTR RNA, 40 nt (ssRNA)
RNA: GUAUUACAAGAAACAAAAAUUCAAGUAAAUAACAGAUAAU
binding result (His6x-eIF4E): no binding
